{
  "source": "paper PMC8877046",
  "about": "“Interferon-β Activity Is Affected by S100B Protein” (International Journal of Molecular Sciences, 2013)",
  "molecules": {"B1": {"name": "Human S100B protein (natural protein)", "chain": "MSELEKAMVALIDVFHQYSGREGDKHKLKKSELKELINNELSHFLEEIKEQEVVDKVMETLDNDGDGECDFQEFMAFVAMVTTACHEFFEHE", "notes": "human S100B, UniProt P04271; crystal structure of Ca2+-loaded human S100B dimer PDB 5D7F chains A and B; The authors take the S100B that was amine-coupled to the SPR chip to be partly converted to the monomer; also called apo-S100B; Ca^2+-loaded S100B"}, "B2": {"name": "Human interferon beta-1a (IFN-β, Rebif) (ligand, UniProt P01574 22-187, looked up)", "chain": "MSYNLLGFLQRSSNFQCQKLLWQLNGRLEYCLKDRMNFDIPEEIKQLQQFQKEDAALTIYEMLQNIFAIFRQDSSSTGWNETIVENLLANVYHQINHLKTVLEEKLEKEDFTRGKLMSSLHLKRYYGRILHYLKAKEYSHCAWTIVRVEILRNFYFINRLTGYLRN", "notes": "human interferon-β (interferon beta-1a), gene IFNB1, UniProt P01574; Drug product Rebif; also called Interferon-β; source: produced in CHO-K1 cells; bought: Merck (Rebif)"}},
  "key": {"[1]": {"biological_target": "IFNAR2 ECD (Homo sapiens) (UniProt P48551)", "sequence (P48551 27-243)": "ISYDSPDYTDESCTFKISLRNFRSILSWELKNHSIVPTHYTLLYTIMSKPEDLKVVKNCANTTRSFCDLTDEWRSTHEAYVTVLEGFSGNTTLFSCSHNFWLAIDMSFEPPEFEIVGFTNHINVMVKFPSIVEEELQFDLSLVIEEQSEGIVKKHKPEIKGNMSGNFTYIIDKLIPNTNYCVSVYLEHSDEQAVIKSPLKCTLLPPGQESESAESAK", "details": "cited from earlier work"}, "[2]": {"biological_target": "T1, Human interferon beta-1a (IFN-β, Rebif) (human), P01574", "T1 chain": "B2 chain", "assay": "other fluorescence titration; tryptophan fluorescence of 0.5 µM IFN-β (excitation 295 nm) titrated by S100B; 25 °C; 10 mM HEPES-NaOH, 150 mM NaCl, 1 mM CaCl2, pH 7.4; one-site binding model; apparent", "details": "remark: other sources report otherwise"}, "[3]": {"biological_target": "the molecule itself", "assay": "cross-linking; 5 µM IFN-β with 10 µM Ca2+-depleted S100B (1:2), and 10 µM apo-S100B alone; 40 mM EDAC, 10 mM sulfo-NHS, 25 °C, 1.5 h; 10 mM HEPES, 150 mM NaCl, pH 7.4, without CaCl2 and without chelator; authors say the samples could be contaminated by Ca2+"}, "[4]": {"biological_target": "the molecule itself", "assay": "cross-linking; 5 µM IFN-β alone; 40 mM EDAC, 10 mM sulfo-NHS, 25 °C, 1.5 h; 10 mM HEPES, 150 mM NaCl, pH 7.4; SDS-PAGE, silver staining; whether CaCl2 was present is not told for this lane"}, "[5]": {"biological_target": "T2, Human S100B protein (human), P04271", "T2 chain": "B1 chain", "assay": "SPR; S100B immobilised by amine coupling on ProteOn GLH chip (up to 9000 RU); analyte 10-80 nM IFN-β; 25 °C; 10 mM HEPES, 150 mM NaCl, 0.05% TWEEN 20, 1 mM CaCl2, pH 7.4; heterogeneous ligand model (two populations of ligand)", "details": "remark: other sources report otherwise"}},
  "data": [
    {"molecule": "IFN-β (from UniProt P01574)", "values": [
      {"measurement": "Kd", "setting": "[1]", "result": 0.1, "unit": "nM"}
    ]},
    {"molecule": "B1", "values": [
      {"measurement": "Kd", "setting": "[2]", "result": 21, "unit": "nM"},
      {"measurement": "stoichiometry N (S100B to IFN-β molar ratio)", "setting": "[2]", "result": 1},
      {"measurement": "stoichiometry N", "setting": "[3]", "result": 2}
    ]},
    {"molecule": "B2", "values": [
      {"measurement": "binding result", "setting": "[4]", "result": "binds"},
      {"measurement": "Kd1 (ligand population 1 of the heterogeneous ligand model)", "setting": "[5]", "result": 47, "unit": "pM"},
      {"measurement": "Kd2 (ligand population 2 of the heterogeneous ligand model)", "setting": "[5]", "result": 87, "unit": "nM"},
      {"measurement": "kd1 (dissociation rate constant, ligand population 1 of the heterogeneous ligand model)", "setting": "[5]", "result": 0.000149, "unit": "s⁻¹"},
      {"measurement": "kd2 (dissociation rate constant, ligand population 2 of the heterogeneous ligand model)", "setting": "[5]", "result": 0.013, "unit": "s⁻¹"},
      {"measurement": "t1/2 of dissociation (fast process)", "setting": "[5]", "result": 1.67, "unit": "min"},
      {"measurement": "t1/2 of dissociation (slow process)", "setting": "[5]", "result": "> 16.7", "unit": "min"}
    ]}
  ]
}
